Measured values taken from patent US20250369024A1, “Acyloin Condensation Reactions, Enzymes, and Products Thereof” (Mojia Biotech Pte. Ltd., priority 2023, published 2025).

Columns and labels:
Assay type in all cases: cell-based, E. coli
Succinic semialdehyde = test: HACS screening, succinic semialdehyde-C1 condensation (resting cells), 2-hydroxyglutaric acid; conditions: 20 mM succinic semialdehyde and 20 mM formate, 3 hours
Source text: To implement the C1 elongation pathway for 2-hydroxyglutaric acid production in vivo, we engineered vectors to independently control expression of various HACS candidates and the acyl-CoA transferase from Clostridium aminobutyricum (CaAbfT), with HACS under control of the IPTG-inducible T7 promoter in pCDFDuet-1 and CaAbfT under control of a cumate-inducible T5 promoter in pETDuet-1. As a host for these vectors, we used an engineered strain of E. coli based on MG1655(DE3) with knockouts for formaldehyde (ΔfrmA) and formate (ΔfdhF ΔfdnG ΔfdoG) oxidation as well as for glycolate utilization (ΔglcD).
(§1) In vivo product synthesis was conducted using M9 minimal media (6.78 g/L Na2HPO4, 3 g/L KH2PO4, 1 g/L NH4Cl, 0.5 g/L NaCl, 2 mM MgSO4, 100 μM CaCl2), and 15 μM thiamine-HCl) unless otherwise stated. Cells were initially grown in 96-deep well plates (USA Scientific, Ocala, FL) containing 0.5 mL of the above media further supplemented with 20 g/L glycerol, 10 g/L tryptone, and 5 g/L yeast extract. […]
(§2) Cells from the above pre-cultures were then centrifuged (4000 rpm, 22° C.), washed with the above minimal media without any carbon source, and resuspended with 1 mL of above minimal media containing indicated amounts of carbon source. […] After incubation at 30° C. for 3 hours, the cells were pelleted by centrifugation and the media was analyzed using HPLC.

glyoxylic acid = test: HACS screening, glyoxylic acid-C1 condensation (resting cells), tartronic acid; conditions: 5 mM glyoxylic acid and 20 mM formate; 1 hour
Source text: To implement the C1 elongation pathway for tartronic acid production in vivo, we engineered vectors to independently control expression of various HACS candidates and the acyl-CoA transferase from Clostridium aminobutyricum (CaAbfT), with HACS under control of the IPTG-inducible T7 promoter in pCDFDuet-1 and CaAbfT under control of a cumate-inducible T5 promoter in pETDuet-1. As a host for these vectors, we used an engineered strain of E. coli based on MG1655(DE3) with knockouts for formaldehyde (ΔfrmA) and formate (ΔfdhF ΔfdnG ΔfdoG) oxidation as well as for glycolate utilization (ΔglcD).
In vivo product synthesis was conducted using M9 minimal media (6.78 g/L Na2HPO4, 3 g/L KH2PO4, 1 g/L NH4Cl, 0.5 g/L NaCl, 2 mM MgSO4, 100 μM CaCl2), and 15 μM thiamine-HCl) unless otherwise stated. Cells were initially grown in 96-deep well plates (USA Scientific, Ocala, FL) containing 0.2 mL of the above media further supplemented with 20 g/L glycerol, 10 g/L tryptone, and 5 g/L yeast extract. […]
Cells from the above pre-cultures were then centrifuged (4000 rpm, 22° C.), washed with the above minimal media without any carbon source, and resuspended with 1 mL of above minimal media containing indicated amounts of carbon source. […] After incubation at 30° C. for 1 hour, the cells were pelleted by centrifugation and the media was analyzed using HPLC.

Methional = test: HACS screening, methional-C1 condensation (resting cells), desmeninol; conditions: 20 mM methional and 20 mM formate, 3 hours
Source text: To implement the C1 elongation pathway for leucic acid production in vivo, we engineered vectors to independently control expression of various HACS candidates and the acyl-CoA transferase from Clostridium aminobutyricum (CaAbfT), with HACS under control of the IPTG-inducible T7 promoter in pCDFDuet-1 and CaAbfT under control of a cumate-inducible T5 promoter in pETDuet-1. As a host for these vectors, we used an engineered strain of E. coli based on MG1655(DE3) with knockouts for formaldehyde (ΔfrmA) and formate (ΔfdhF ΔfdnG ΔfdoG) oxidation as well as for glycolate utilization (ΔglcD).
as §1, §2

B1: RuHACL: Engineered 2-hydroxyphytanoyl-CoA lyase [Rhodospirillales bacterium URHD0017], SEQ ID NO: 1 (protein)
chain: MSEVDGATLIARSLKQQGIDHLFGVVGFPITAIAAAAQKEGVAYLGMRNEQSAAYAAAAYGYLTGRPGAAVVVTGPGVVHGLSGLANAQQNCWPMILIGGASETYRGGMGAFQEERQVLIASPFCKFAHGIESVARIPFYVEMATRNAIYGRPGATYLDMPDDIIRGTCETDKIAQAERVPEAPRSVAPAENVEAALDLLEKAQRPLVLLGKGMAWSRGEDEVRAFIERTQVPFVRSPMGKGVMPDDHPLSASAARTLALQQADVIFLMGARLNWIFHFGLPPRYAKDVKVIQLDIAPEEIGHNKPTEVALVGDGKAIMAQLNKALVNRQWFHPKDTPWRQALTKKAAENVATIKPQVDDDQGPAGYYRALRDVAAWMPKNAILSAEGANTMDIGLTQLASSNARSVLNAGTYGTMGVGLGQAIAAAVSDPSRPVIHLSGDSAIGFSGMEMETLVRYNLPVKIVVLNNGGIGPGMPEIPENPMFNLKPNALIYGARYDKVMEAFGGKGIFVKEPKDIRKALDEAMAFKGPALVNVVLSQGSTRKAQQFAWHS
modifications: Rhodospirillales bacterium URHD0017 engineered 2-hydroxyphytanoyl-CoA lyase
Question: What does the source list for B1?
Answer: Product flux, substrate Succinic semialdehyde, product 2-hydroxyglutarate (Succinic semialdehyde): 15.2 μM/OD/h; tartronic acid productivity of best candidate (glyoxylic acid): up to 13 μM/hr per OD600; Product flux, substrate Methional, product Desmeninol (Methional): 20.0 μM/OD/h
